These results are taken from patent US12723078 (University of Texas, dated 2026).

The labels stand for the following.
B1: mAb of B cell clone 72 (supernatant) (antibody, V domains shown)
VH: QSVKESGGGLVQPEGSLALTCKASGIDLSNYWYMCWVRQAPGKGLEWIGCVATDSSRTHYATWAKGRFTVSKTSSTTVTLQMTSLTAADTATYFCARGSGASTNGVWWVMGDGMDLWGPGTLVTISS
VL: ELVMTQTPSSVSAAVGGTVTIKCQASPSISTYLSWYQQKPGQPPKRLINRASTLASGVPPRFKGSGAGTQFTLTISDLECADAATYYCQNNYHSGSSNGGGVAFGGGTEVEIK
notes: rabbit; also called B1-#72-1
B2: mAb of B cell clone 58 (supernatant) (antibody, V domains shown)
VH: EQSLEESGGDLVKPGASLTLTCTASAFSFSSSSWICWVRQAPGKGLEWIACIYGGSVGTTYYASWAKGRFTISKPSSTTVTLQMTSLAAADTATYFCATNTDSSRSYYNLWGPGTLVTISS
VL: ELVLTQTPSSVEVAVGGAVTIKCQASHIITNYLAWYQQRPGQPPKLLIYDASKLASGVPSRFKGSGSGTEFTLTISDLECADAATYYCQNYLYFSSGDWNVFGGGTEVVVK
notes: rabbit; also called B1-#58-1
B3: mAb of B cell clone 83 (supernatant) (antibody, V domains shown)
VH: EQSLKESGGDLVKPGASLTLTCTASAFSFSSSSWICWVRQAPGKGLEWIACIYGGSVATTYYATWAKGRFTISKPSSTTVTLQMTSLPAADTATYFCATNTDSSRSYYNLWGPGTLVTVSS
VL: ELDLTQTPSSVEVAVGGAVTIKCQASHIITNYLAWYQQRPGQPPKLLIYDASKLASGVPSRFKGSGSGTEFTLTISDLECADAATYYCQNYLYFSSGDWNVFGGGTEVVVK
notes: rabbit; also called B1-#83
B4: mAb of B cell clone 41 (supernatant) (antibody, V domains shown)
VH: QSVKESGGDLVKPGASLTLTCTASGFSFSSSYWICWVRQAPGKGLEWIACIYAGSSGSTYYASWAKGRFTISKTSSTTVTLQMTSLTAADTATYFCARSTSGSYGAGLGLWGPGTLVTISS
VL: ELDMTQTASPVSGAVGGTVTIKCQASQNIYNNIGWYQQKPGQPPNLLIYGPSYLASGVPSRFKGSRSGTEYTLTISDLECADAATYYCQSDDWMSISPDIVFGGGTEVEIK
notes: rabbit; also called B1-#41-1
B5: mAb of B cell clone 22 (supernatant) (antibody, V domains shown)
VH: EQSLEESGGGLVKPGASLTLTCKASGFDFSSNDYMCWVRQAPGKGLEWIGCIYGGDGHTYYATWAKGRFTISKASSTTVTLQMTSLTAADTASYFCARGYSYGDTGYADAILTLDLWGPGTLVTVSS
VL: ELDLTQTPASVEAAVGGTVTIKCQASQTIGSYLSWYQQKPGQRPKLLIYEASKLASGVPSWFKGSGSGTEFTLTISDLECADAATYYCQSNYYRAGGNYGGAFGGGTEVEIK
notes: rabbit; also called B1-#22
B6: mAb of B cell clone 56 (supernatant) (antibody, V domains shown)
VH: QSLEESGGDLVQPEGSLTLTCTASGFSFSINLYMCWVRQAPGKGLEWIACIYGNNNANTYYTTWAKGRFTISKTSPTTVTLQMTSLTGADTATYFCARDTAAYYAFSLWGPGTLVTISS
VL: ELVMTQTPSSSSAAVGGTVTIKCQASQSIGSRFAWYQQKPGQRPKLLIYEASKLPSGVPSRFKGSGSGTEFTLTISDLECADAAIYYCQCTYYESSSGGGFGGGTEVVVK
notes: rabbit; also called B1-#56
B7: mAb of B cell clone 15 (supernatant) (antibody, V domains shown)
VH: EQSVEESGGDLVKPGASLTLTCTASGFSSSSSAYMCWVRQAPGKGLEWIACIFIGSGSDSYYATWAKGRFTISKTSSTTVTLQMTSLTAADTATYFCARNTYDWNGYIYGPCYFGLWGPGTLVTISS
VL: ELDLTQTPSSVEAAVGGTVTIKCQASQSIYNYLAWYQQKPGHSPKLLIYDVSKLASGVSSRFKGSGSGTEFTLTISDLECADAATYYCQSYYGNTVSFTFGGGTEVEIK
notes: rabbit; also called B1-#15
B8: mAb of B cell clone 76 (supernatant) (antibody, V domains shown)
VH: EQSVEESGGGLVQPEGSLTLTCTASGFSFSGSCDMSWVRQAPGKGLEWIACIVLSNGNTYYAGWAQGRFTISKISSTTVTLEMTSLTAADTATYFCARERYPGAFSSGLDLWGQGTLVTVSS
VL: ELDLTQTPSPVSAAVGGTVTINCQASQIVANGRLAWYQQKPGQPPKLLIYATSTLASGVPSRFKGSGSGTQFTLTINGVQCDDAATYYCQGAYSSGDVRTFGGGTEVVVK
notes: rabbit; also called B1-#76
B9: mAb of B cell clone 28 (supernatant) (antibody, V domains shown)
VH: EQSLEESGGGLVKPGASLTLTCKASGFSFSSDYDMCWVRQAPGKGLEWIGCIVTGFSGRIYYATWARGRFTFSRTSSTTLTLQMTSLTAADTATYFCARDSGNYNWDLWGPGTLVTISS
VL: ELDLTQTPTSVSAAVGGTVTIKCQASQSISDYLSWYQQKPGQPPKLLIYRASTLASGVPSRFKGSGSGTEFTLTISDLECADAATYYCQSNYYGSQGCTFGGGTEVEIK
notes: rabbit; also called B1-#28
B10: mAb of B cell clone 220 (supernatant) (antibody, V domains shown)
VH: QSVEESGGGLVQPEGSLTLTCTASGFSFSGIVYMCWVRQAPGKGLEWIACAFVGSGGSTYYATWATGRFTISKTSSTTVTLQMTSLTAADTATYFCAKSYNYNGLGLWGPGTLVTVSS
VL: ELDMTQTPASVSAAVGGTVTIKCQASQSITNALAWYQQKPGQPPKLLIYRASTLASGVSSRFKGSGSGTEFTLTISDLECADAATYYCQCSYYGSTYFGSPFGGGTEVEIK
notes: rabbit; also called B1-#220
B11: mAb of B cell clone 74 (supernatant) (antibody, V domains shown)
VH: QSLEESGGGLVKPGASLTLTCTASGFSLNRYYMCWVRQAPGKGLEWIGCIYSGSGSTYYASWAKGRFTISKTSSTTVTLQMTSLPAADTATYFCGRLDYRVIYAFNLWGPGTLVTISS
VL: ELVLTQTPASVSAAVGGTVTINCQASQSIGSGNLAWYQQKPGQPPKLLIYLASTLASGVPPRFKGSGSGTEFTLTISDLECDDAATYYCQYTYYGTTYDNAFGGGTELEIK
notes: rabbit; also called B1-#74
B12: mAb of B cell clone 19 (supernatant) (antibody, V domains shown)
VH: EQSVEESGGGLVKPEGSLTLTCKASGLDFSSSYWSCWVRQTPGRGLEWIGCIDVGSSGGSYYASWARGRFTVSKGSSTTVTLQMTSLTAADTATYFCASTTTNVFGYDLWGPGTLVTVSS
VL: ELDLTQTPASVSEPVGGTVTIKCQASQNIYNNLAWYQQKPGQPPKLLIYYASTLASGVPPRFSGSGSGTEYTLTISDLECDDAATYYCQNNAGIYGGYGHGFGGGTEVVVK
notes: rabbit; also called B1-#19
B13: mAb of B cell clone 221 (supernatant) (antibody, V domains shown)
VH: QSLEESGGDLVKPGASLTLTCTASGFSFSSSYYMCWVRQAPGKGLEWIACIYGGSTGTTYYASWAKGRFTISKTSSTTVTLQMTSLTGADTATYFCARSYNSASSGYYWDLWGPGTLVTVSS
VL: ELDLTQTPSSVEAAVGGTVTIKCQASQSIGSNLAWYQQKPGQPPKVLIYKASTLASGVPSRFKGSGSGTQFTLTISDLECADAATYYCQNNNYWSNGNHFGGGTEVVVK
notes: rabbit
B14: mAb of B cell clone 25 (supernatant) (antibody, V domains shown)
VH: EQSVKESGGGLVQPEGSLTLTCKVSGIDFNYYNYYYMCWVRQAPGKGLEWIGCMSTASANIYLASWAKGRFTISEASSTTVTLQMTSLTAADTATYFCAKSHGGDGGYGVVLWGPGTLVTISS
VL: ELDLTQTPFSVSAAVGGTVTIKCQASETISNRLAWYQQKPGQPPKLLIYSASTLESGVPSRFKGSGSGTEFTLTISDLECADAATYYCQSIRSSSGIVHPNTFGGGTEVEIK
notes: rabbit; also called B1-#25
B15: mAb of B cell clone 226 (supernatant) (antibody, V domains shown)
VH: QEQLVESGGGLVQPEGSLTLTCTASGFSFSSRQYISWVRRAPGKGLEWIGAIVTVNNKVHYANWAKGRFTISEASSTTVTLQMTSLTAADTATYFCARWRTFGLWGPGTLVTVSS
VL: ELVLTQTPSSKSVAVGDTVTINCQASENVYSNNYTSWFQQKPGQPPKQLLYYAAYRASGVPSRFKGSGSGTEFTLSISDVVCDDAATYYCSGHKDYSDDGSTFGGGTEVVVK
notes: rabbit
B16: mAb of B cell clone 224 (supernatant) (antibody, V domains shown)
VH: EQSVEESGGGLVQPEGSLTLTCTASGIDFSSGAWICWVRQAPGKGLELIACIFTTSGFTYYASWAKGRFTISKTSSTTVTLQMTSLTAADTATYFCARDIYSYGMDLWGPGTLVTISS
VL: ELVLTQTPSSVSEPVGGTVTIKCQASQSISSSYLAWYQQKPGQPPKFLIYSASTLASGVPSRFKGSGSGTEFTLTISDLECADAATYYCQSTYISSSNYGAAFGGGTEVEIK
notes: rabbit
B17: mAb of B cell clone 18 (supernatant) (antibody, V domains shown)
VH: EQSVKESGGGLVKPGGTLTLTCIVSGFSLSRYAVTWVRQAPGKGPEWIGYIDTSSGNKDYANWVNGRFTISKTSSTTVTLQMTSLTAADTATYFCARGFSMFKLWGPGTLVTISS
VL: ELVMTQTPSSVSAAVGGTVTISCQASQSVYNNNNLAWYQQKPGQPPKRLIYSASTLDSGVPSRFSGSGSGTQFTLTISDLECDDAATYYCAGGYTYNINIFGGGTEVEIK
notes: rabbit; also called B1-#18
B18: mAb of B cell clone 38 (supernatant) (antibody, V domains shown)
VH: EQSVEESEGGLVQPEGSLTLTCTASGFSFSNDYWICWVRQAPGKGLEWIGCGHIGSFRTTYYASWAKGRFSISKTSSTTVTLQMTSLTGADTATYFCARSPYDDGYGGFTFNLWGPGTLVTISS
VL: ELDMTQTPSSVEAAVGGTVTVKCQVSQSIGNAIAWYQQKPGQPPKLLIYKASTLASGVPSRFKGSGSGTEFTLTISDLECADAATYYCQNYYYSNTNSFGGGTEVVVK
notes: rabbit; also called B1-#38
B19: mAb of B cell clone 27 (supernatant) (antibody, V domains shown)
VH: EQSVKESGGGLVQPEGSLTLTCTVSGFSFSGSYWICWVRQAPGKGLEWIACIYGDSIATYYPNWAKGRFTISKTSSTTVTLQMASLTGADTATYFCARDRNGGSGAYGWDLWGPGTLVTISS
VL: ELDLTQTPASVSEPVGGTVTITCQASQSISSYLSWYQQTPGQPPKLLIYKASTLASGVPSRFKGSGSGTEFTLTISDLECADAATYYCQSYYYISATVDNTFGGGTEVEIK
notes: rabbit; also called B1-#27
B20: mAb of B cell clone 10 (supernatant) (antibody, V domains shown)
VH: EQSVEESGGGLVKPEGSLTLTCKASGLDFSSSYWICWVRQAPGKGLEWIACIDTGSSGSTYYASWAKGRFTVSKTSSTTVSLQMTSLTAADTATYFCASTPNSLGYDLWGPGTLVTISS
VL: ELDLTQTPASVSAAVGGTVTIKCQASQNIVSNLAWYQQKPGQRPKLLIYYASTLASGVPSRFKGSGSGTEYTLTISDLECADAATYYCQNNAGIYGNYGHGFGGGTELEIK
notes: rabbit; also called B1-#10
B21: mAb of B cell clone 79 (supernatant) (antibody, V domains shown)
VH: QSLEESGGGLVQPEGSLTLTCTVSGFSFSSSWYMCWVRQAPGKGLEWIACIYTLRSGAAHYANWAKGRFTISKASSTTVTLQMNSLTAADTATYFCARATYAYAGAGDLWGPGTLVTVSS
VL: ELVLTQTPSSVSAAVGGTVTINCQASEDIDRYLAWYQQKPGQRPKLLIVDASTLPSGVPSRFKGSGSGTEFTLTISDLECADGATYYCQSYDNSDNNGFGGGTEVVVK
notes: rabbit; also called B1-#79

T1 sequence (Q8NHL6 24-461 limits assumed): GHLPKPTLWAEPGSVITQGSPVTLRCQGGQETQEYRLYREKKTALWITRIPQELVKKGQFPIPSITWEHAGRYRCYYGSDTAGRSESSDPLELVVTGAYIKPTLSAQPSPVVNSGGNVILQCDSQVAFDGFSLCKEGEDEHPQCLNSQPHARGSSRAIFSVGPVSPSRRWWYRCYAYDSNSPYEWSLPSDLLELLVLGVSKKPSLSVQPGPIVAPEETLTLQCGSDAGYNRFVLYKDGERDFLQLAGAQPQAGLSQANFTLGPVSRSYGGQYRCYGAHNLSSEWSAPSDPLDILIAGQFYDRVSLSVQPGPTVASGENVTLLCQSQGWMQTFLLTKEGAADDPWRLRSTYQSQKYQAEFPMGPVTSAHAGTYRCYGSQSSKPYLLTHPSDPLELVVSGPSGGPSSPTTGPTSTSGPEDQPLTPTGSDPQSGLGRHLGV

The test addresses T1, human LILRB1 recombinant protein (human, UniProt Q8NHL6 24-461).
T1 construct: The ELISA method says only 'LILRB1 recombinant proteins' coated on plates; also called leukocyte immunoglobulin-like receptor subfamily B member 1
The test is described as follows: ELISA, B cell supernatant. Background: In an ELISA, binding on a coated surface is turned into a signal by an enzyme label.
Turning to B1, the OD450 was determined as 2.25 OD450.
Then B2, with 2.26 OD450; and B3, with 2.32 OD450; and B4, with 2.26 OD450.
Next, B5: 1.84 OD450.
Next, B6: 2.09 OD450.
As for B7, the OD450 amounted to 2.5 OD450.
Next, B8: 2.14 OD450; B9: 2.27 OD450; B10: 2.24 OD450.
For B11, the OD450 worked out at 2.4 OD450.
B12: the OD450 was determined as 2.32 OD450.
Next, B13: 1.64 OD450.
Next, B14: 2.3 OD450; B15: 2.38 OD450.
Next, B16: 2.09 OD450; B17: 2.41 OD450; B18: 2.32 OD450.
Take B19: the OD450 is 2.56 OD450.
In the case of B20, the OD450 was 2.17 OD450.
Next, B21: 2.32 OD450.
